This note sets out measurements from US20200283483A1 (TECHNISCHE UNIVERSITAET MUENCHEN, published 2020).

Square brackets hold non-standard residues; d marks the D form. dNMeF = CN[C@H](Cc1ccccc1)C(=O)O; NMeA = CN[C@@H](C)C(=O)O

In one assay the target is T1, human αvβ3-integrin (human, UniProt P06756 31-992; P05106 27-718).
T1 construct: soluble integrin bought from R&D; also called integrin αvβ3
Kind of assay: solid-phase competition ELISA, soluble αvβ3 on coated vitronectin. (In general: In an ELISA, binding on a coated surface is turned into a signal by an enzyme label.)

Another assay addresses T2, human αvβ5-integrin (human, UniProt P06756 31-992; P18084 24-719, limits assumed).
T2 construct: soluble integrin bought from Millipore
As to the kind of experiment: solid-phase competition ELISA, soluble αvβ5 on coated vitronectin.

Another assay concerns the target T3, human αvβ6-Integrin (human, UniProt P06756 31-992; P18564 22-707).
T3 construct: soluble integrin bought from R&D
Kind of assay: solid-phase competition ELISA, soluble αvβ6 on coated LAP (TGF-β).

T3 sequence (P06756 31-992 limits assumed, chain 1 of 2): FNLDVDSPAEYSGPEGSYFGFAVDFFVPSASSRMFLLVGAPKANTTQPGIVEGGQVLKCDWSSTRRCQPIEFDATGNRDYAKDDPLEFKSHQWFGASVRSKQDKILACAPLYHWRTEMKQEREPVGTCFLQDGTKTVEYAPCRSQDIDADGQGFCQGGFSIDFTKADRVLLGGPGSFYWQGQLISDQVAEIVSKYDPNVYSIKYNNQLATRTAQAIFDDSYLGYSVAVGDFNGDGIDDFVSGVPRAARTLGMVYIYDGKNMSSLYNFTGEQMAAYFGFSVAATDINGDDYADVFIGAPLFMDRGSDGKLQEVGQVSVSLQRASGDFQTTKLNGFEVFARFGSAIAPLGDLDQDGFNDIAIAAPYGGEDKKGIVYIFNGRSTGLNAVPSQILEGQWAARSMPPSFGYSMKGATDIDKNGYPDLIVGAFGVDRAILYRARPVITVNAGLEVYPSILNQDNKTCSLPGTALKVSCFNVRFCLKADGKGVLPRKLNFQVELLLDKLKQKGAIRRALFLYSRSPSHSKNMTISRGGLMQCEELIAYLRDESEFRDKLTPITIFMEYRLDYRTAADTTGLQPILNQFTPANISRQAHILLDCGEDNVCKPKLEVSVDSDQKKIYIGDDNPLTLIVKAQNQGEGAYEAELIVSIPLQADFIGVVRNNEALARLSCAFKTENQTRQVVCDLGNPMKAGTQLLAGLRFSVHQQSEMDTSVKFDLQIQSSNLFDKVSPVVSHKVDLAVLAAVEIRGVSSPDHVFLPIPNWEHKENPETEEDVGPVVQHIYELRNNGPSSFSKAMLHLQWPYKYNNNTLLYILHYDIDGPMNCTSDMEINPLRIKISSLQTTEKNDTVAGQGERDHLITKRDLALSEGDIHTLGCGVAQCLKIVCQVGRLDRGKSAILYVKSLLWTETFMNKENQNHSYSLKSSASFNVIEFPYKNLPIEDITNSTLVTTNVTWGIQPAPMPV
T3 sequence (P18564 22-707 limits assumed, chain 2 of 2): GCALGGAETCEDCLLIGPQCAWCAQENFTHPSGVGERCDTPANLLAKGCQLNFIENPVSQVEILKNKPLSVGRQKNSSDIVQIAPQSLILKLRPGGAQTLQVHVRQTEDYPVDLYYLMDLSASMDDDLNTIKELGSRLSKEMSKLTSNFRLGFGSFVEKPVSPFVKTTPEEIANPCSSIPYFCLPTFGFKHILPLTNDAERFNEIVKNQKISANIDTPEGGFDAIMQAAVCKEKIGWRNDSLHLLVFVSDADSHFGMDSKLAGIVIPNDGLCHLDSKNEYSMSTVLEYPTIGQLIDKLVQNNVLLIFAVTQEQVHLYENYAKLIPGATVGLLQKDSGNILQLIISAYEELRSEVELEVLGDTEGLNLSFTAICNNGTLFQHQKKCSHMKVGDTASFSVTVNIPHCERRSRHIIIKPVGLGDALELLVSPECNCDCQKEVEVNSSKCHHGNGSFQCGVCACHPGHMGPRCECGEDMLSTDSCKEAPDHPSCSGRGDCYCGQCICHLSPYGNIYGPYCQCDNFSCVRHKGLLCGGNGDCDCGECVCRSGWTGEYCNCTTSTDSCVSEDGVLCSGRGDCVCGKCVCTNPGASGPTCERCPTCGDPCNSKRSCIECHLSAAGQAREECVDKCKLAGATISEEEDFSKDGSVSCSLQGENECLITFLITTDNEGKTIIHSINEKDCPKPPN
T2 sequence (P06756 31-992 limits assumed, chain 1 of 2): as the sequence (P06756 31-992 limits assumed, chain 1 of 2) above
T2 sequence (P18084 24-719 limits assumed, chain 2 of 2): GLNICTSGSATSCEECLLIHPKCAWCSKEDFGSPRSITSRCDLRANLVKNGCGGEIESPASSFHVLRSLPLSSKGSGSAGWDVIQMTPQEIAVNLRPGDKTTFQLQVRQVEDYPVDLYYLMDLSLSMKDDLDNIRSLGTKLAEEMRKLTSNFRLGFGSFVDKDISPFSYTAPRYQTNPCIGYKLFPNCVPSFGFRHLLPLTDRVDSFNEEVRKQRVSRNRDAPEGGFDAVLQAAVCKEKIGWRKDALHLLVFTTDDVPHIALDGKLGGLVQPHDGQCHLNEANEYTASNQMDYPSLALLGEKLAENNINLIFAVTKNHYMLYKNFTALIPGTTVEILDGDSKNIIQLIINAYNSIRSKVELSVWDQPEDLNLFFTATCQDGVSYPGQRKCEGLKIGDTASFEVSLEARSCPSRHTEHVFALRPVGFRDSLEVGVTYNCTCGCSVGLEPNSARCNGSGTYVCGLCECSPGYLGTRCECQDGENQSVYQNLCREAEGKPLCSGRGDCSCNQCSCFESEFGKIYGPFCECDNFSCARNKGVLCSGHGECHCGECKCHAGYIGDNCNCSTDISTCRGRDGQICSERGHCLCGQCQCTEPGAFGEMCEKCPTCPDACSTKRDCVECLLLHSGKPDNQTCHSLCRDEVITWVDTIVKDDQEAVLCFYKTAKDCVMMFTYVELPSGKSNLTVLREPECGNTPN
T1 sequence (P06756 31-992 limits assumed, chain 1 of 2): as the sequence (P06756 31-992 limits assumed, chain 1 of 2) above
T1 sequence (P05106 27-718 limits assumed, chain 2 of 2): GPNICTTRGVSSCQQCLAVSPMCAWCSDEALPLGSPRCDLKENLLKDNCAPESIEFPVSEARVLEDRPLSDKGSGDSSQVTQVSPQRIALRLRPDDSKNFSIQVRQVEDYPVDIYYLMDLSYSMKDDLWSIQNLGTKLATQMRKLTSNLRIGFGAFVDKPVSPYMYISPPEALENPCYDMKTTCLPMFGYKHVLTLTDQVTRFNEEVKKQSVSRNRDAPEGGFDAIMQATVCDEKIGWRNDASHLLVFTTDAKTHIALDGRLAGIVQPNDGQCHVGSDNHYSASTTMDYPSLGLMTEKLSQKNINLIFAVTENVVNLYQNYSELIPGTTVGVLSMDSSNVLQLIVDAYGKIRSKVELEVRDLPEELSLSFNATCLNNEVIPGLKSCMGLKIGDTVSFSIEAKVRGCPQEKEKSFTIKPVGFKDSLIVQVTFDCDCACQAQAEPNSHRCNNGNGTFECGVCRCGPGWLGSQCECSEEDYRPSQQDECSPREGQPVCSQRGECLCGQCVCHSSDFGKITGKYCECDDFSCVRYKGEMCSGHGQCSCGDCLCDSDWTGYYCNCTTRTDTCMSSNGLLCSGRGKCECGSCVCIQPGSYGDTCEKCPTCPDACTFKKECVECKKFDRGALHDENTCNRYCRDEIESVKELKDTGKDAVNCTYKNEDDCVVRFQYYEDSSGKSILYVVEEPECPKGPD

Take cyclo([dNMeF]RGDA[NMeA]) (scaffold NMe(1,6)) [peptide #30 c(*fRGDA*A)]: the IC50 with human αvβ3-integrin worked out at 0.6 nM; with human αvβ5-integrin, 145 nM; with human αvβ6-Integrin, 120 nM.

Usually IC50 stands for the midpoint of a concentration-inhibition curve. A higher IC50 goes with lower potency.
